Laboratory results published in publication PMC6288289.

Target: HAF protein (trimeric recombinant H5N1 hemagglutinin ectodomain with the bacteriophage T4 fibritin fold on trimerization sequence) (influenza A virus A/Anhui/1/2005 (H5N1) | bacteriophage T4)
Assay: SEC; […], running buffer pH 8.0 ([…]

Q: How did the stoichiometry N turn out when “HAF protein (trimeric recombinant H5N1 hemagglutinin ectodomain with the bacteriophage T4 fibritin fold on trimerization sequence)” was run?
A: 3
